Patent publication US20020159958A1 (REGENTS OF UNIVERSITY OF CALIFORNIA, published 2002)

B1: protection protein (amino acids 1-606 of rabbit polyimmunoglobulin receptor) expressed alone in plants (receptor)
chain: QSSLLGPSSIFGPGEVNVLEGDSVSITCYYPTTSVTRHSRKFWCREEESGRCVTLASTGYTSQEYSGRGKLTDFPDKGEFVVTVDQLTQNDSGSYKCGVGVNGRGLDFGVNVLVSQKPEPDDVVYKQYESYTVTITCPFTYATRQLKKSFYKVEDGELVLIIDSSSKEAKDPRYKGRITLQIQSTTAKEFTVTIKHLQLNDAGQYVCQSGSDPTAEEQNVDLRLLTPGLLYGNLGGSVTFECALDSEDANAVASLRQVRGGNVVIDSQGTIDPAFEGRILFTKAENGHFSVVIAGLRKEDTGNYLCGVQSNGQSGDGPTQLRQLFVNEEIDVSRSPPVLKGFPGGSVTIRCPYNPKRSDSHLQLYLWEGSQTRHLLVDSGEGLVQKDYTGRLALFEEPGNGTFSVVLNQLTAEDEGFYWCVSDDDESLTTSVKLQIVDGEPSPTIDKFTAVQGEPVEITCHFPCKYFSSEKYWCKWNDHGCEDLPTKLSSSGDLVKCNNNLVLTLTLDSVSEDDEGWYWCGAKDGHEFEEVAAVRVELTEPAKVAVEPAKVPVDPAKAAPAPAEEKAKARCPVPRRRQWYPLSRKLRTSCPEPRLLAEEVAVQSAE
notes: also called plants expressing only protection protein; free protection protein
B2: mouse J chain expressed alone in plants (other, UniProt P01592 22-159, looked up)
chain: GDDEATILADNKCMCTRVTSRIIPSTEDPNEDIVERNIRIVVPLNNRENISDPTSPLRRNFVYHLSDVCKKCDPVEVELEDQVVTATQSNICNEDDGVPETCYMYDRNKCYTTMVPLRYHGETKMVQAALTPDSCYPD
notes: Tested as crude plant extract; also called plants expressing only J chain

Key:
[1] = molecular target: T1, purified streptococcal antigen (SA) I/II (Streptococcus mutans, UniProt P23504 39-1532); test: ELISA on purified SA I/II, plant extract
T1 construct: Purified antigen as coated on ELISA plates; also called SA 1/11; purified SA I/II
T1 sequence (looked up): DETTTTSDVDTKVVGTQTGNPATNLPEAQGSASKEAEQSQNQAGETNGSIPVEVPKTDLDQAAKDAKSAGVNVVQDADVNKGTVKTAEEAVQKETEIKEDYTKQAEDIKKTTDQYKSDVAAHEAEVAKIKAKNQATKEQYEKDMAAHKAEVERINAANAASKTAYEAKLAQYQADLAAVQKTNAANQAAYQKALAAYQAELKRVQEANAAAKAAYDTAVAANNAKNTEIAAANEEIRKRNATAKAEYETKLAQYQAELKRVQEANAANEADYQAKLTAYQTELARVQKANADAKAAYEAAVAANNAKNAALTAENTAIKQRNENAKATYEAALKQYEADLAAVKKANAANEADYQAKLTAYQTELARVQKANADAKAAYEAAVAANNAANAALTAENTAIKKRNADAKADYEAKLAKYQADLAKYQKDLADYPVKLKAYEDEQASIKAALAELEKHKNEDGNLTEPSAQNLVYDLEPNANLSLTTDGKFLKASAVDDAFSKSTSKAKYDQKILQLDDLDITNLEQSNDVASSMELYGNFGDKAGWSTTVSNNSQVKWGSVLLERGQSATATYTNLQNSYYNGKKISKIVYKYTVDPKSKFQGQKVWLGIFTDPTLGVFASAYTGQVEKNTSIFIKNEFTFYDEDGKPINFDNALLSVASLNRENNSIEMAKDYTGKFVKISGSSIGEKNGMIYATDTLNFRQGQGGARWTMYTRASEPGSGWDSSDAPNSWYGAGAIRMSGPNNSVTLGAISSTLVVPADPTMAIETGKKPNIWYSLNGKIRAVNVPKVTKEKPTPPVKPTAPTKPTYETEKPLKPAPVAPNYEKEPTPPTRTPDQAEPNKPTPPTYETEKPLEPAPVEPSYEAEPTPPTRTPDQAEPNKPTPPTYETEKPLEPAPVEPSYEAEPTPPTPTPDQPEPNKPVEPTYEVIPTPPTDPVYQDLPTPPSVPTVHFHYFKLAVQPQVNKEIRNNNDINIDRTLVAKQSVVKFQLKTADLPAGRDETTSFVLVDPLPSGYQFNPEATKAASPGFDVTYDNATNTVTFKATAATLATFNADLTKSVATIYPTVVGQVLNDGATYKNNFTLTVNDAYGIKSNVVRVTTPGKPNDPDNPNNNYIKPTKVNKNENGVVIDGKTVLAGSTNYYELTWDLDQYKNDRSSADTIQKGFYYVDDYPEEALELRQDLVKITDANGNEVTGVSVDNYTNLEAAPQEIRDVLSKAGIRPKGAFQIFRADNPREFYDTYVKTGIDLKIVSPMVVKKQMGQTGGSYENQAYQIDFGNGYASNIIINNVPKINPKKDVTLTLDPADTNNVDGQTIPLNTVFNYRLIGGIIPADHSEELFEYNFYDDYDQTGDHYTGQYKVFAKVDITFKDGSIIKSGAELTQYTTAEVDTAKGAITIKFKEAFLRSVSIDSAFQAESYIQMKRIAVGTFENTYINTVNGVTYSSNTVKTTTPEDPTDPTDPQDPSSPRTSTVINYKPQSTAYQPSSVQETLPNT

[2] = molecular target: T1, purified streptococcal antigen (SA) I/II; test: ELISA on SA I/II, plant extract

Binder	binding result [1]	binding result [2]
B1	no binding	
B2		no binding
